Data as given in patent US20240190940A1 (published 2024).

T1: NRAS Q61K peptide on HLA-B*27:01 (human)
T1 peptide: ILDTAGKEEY

T2: NRAS Q61K peptide on HLA-C*07:01 (human)
T2 peptide: ILDTAGKEEY

T3: NRAS Q61R peptide on HLA-A*01:01 (human)
T3 peptide: ILDTAGREEY

T4: NRAS Q61K peptide on HLA-A*02:01 (human)
T4 peptide: ILDTAGKEEY

T5: NRAS Q61K peptide on HLA-B*08:01 (human)
T5 peptide: ILDTAGKEEY

T6: NRAS Q61K (Q61K RAS; same sequence in KRAS and HRAS Q61K) peptide on HLA-A*01:01 (human)
T6 peptide: ILDTAGKEEY


Columns and labels:
[1] = biological target: T1, NRAS Q61K peptide on HLA-B*27:01; assay: cytokine release
[2] = biological target: T2, NRAS Q61K peptide on HLA-C*07:01; assay: cytokine release
[3] = biological target: T3, NRAS Q61R peptide on HLA-A*01:01; assay: cytokine release
[4] = biological target: T4, NRAS Q61K peptide on HLA-A*02:01; assay: cytokine release
[5] = biological target: T5, NRAS Q61K peptide on HLA-B*08:01; assay: cytokine release
[6] = biological target: T6, NRAS Q61K (Q61K RAS; same sequence in …); assay: multimer staining
[7] = biological target: Q61K RAS 10-mer peptide … presented by HLA-A*01:01 on cells (human); assay: cell-based or functional assay

Binder	binding result [1]	binding result [2]	binding result [3]	binding result [4]	binding result [5]	binding result [6]	4-1BB upregulation by TCR-transduced CD8+ effector cells (flow cytometry), autologous DC pulsed with various peptide concentrations [7] [µg/ml]
3795 (TCR, V domains shown) Valpha: AQKVTQAQTEISVVEKEDVTLDCVYETRDTTYYLFWYKQPPSGELVFLIRRNSFDEQNEISGRYSWNFQKSTSSFNFTITASQVVDSAVYFCALSESHNNAGNMLTFGGGTRLMVKP Vbeta: NAGVTQTPKFQVLKTGQSMTLQCAQDMNHNSMYWYRQDPGMGLRLIYYSASEGTTDKGEVPNGYNVSRLNKREFSLRLESAAPSQTSVYFCAASQNTEAFFGQGTRLTVV	no recognition	no recognition	no recognition	no recognition	no recognition	recognises	
TCR 3795, cysteine-substituted, LVL-modified chimeric TCR (human variable regions, murine constant regions) (TCR) TCR alpha: AQKVTQAQTEISVVEKEDVTLDCVYETRDTTYYLFWYKQPPSGELVFLIRRNSFDEQNEISGRYSWNFQKSTSSFNFTITASQVVDSAVYFCALSESHNNAGNMLTFGGGTRLMVKPNIQNPEPAVYQLKDPRSQDSTLCLFTDFDSQINVPKTMESGTFITDKCVLDMKAMDSKSNGAIAWSNQTSFTCQDIFKETNATYPSSDVPCDATLTEKSFETDMNLNFQNLLVIVLRILLLKVAGFNLLMTLRLWSS TCR beta: NAGVTQTPKFQVLKTGQSMTLQCAQDMNHNSMYWYRQDPGMGLRLIYYSASEGTTDKGEVPNGYNVSRLNKREFSLRLESAAPSQTSVYFCAASQNTEAFFGQGTRLTVVEDLRNVTPPKVSLFEPSKAEIANKQKATLVCLARGFFPDHVELSWWVNGKEVHSGVCTDPQAYKESNYSYCLSSRLRVSATFWHNPRNHFRCQVQFHGLSEEDKWPEGSPKPVTQNISAEAWGRADCGITSASYQQGVLSATILYEILLGKATLYAVLVSTLVVMAMVKRKNS							> 0.01
